Biological target: fusion protein consisting of apoB17 and the receptor binding domain of apoB ("B17(B69-79)")
Assay: cell-based or functional assay

- secretion of the fusion protein: 10 fold
Substance: ligand binding domain of the LDL receptor ("soluble LDL receptor") (from UniProt P01130 22-354)
